The record followed here is the DeepSol protein solubility set.

A short description of this series: soluble on expression in E. coli; label from the status in PepcDB or PDB records.
For “MQLNSSSFHPHHFTCDTTRYSEEQVACICEALSNDARKLSQFVWTVLERDEMRNNQYILKAQAFLAFHSNNFKELYRIIESHHFASEHHLPLQEWWLNAHYHEAEKIRGRQLGAVGKYRIRRKYPLPRTIWDGEETSYCFRDKSRVLLRDWYCRNSYPSPREKRELAEKTHLTVTQVSNWFKNRRQRDRAGVPEPKDCLKDISEEEDLKLIRKTASKLSNSFHNPSDLSSYSAAAAAATFPGFYMNYNDMMIGAGTSYQSL”, the “soluble on expression in E. coli” value is listed as “not soluble”.
With “LGFFNRIEKTEKDKSQIDFGSIHGTGWLIDWKEVDKKDKKANKFTVYLATNLHVIQALKNREDHPPYNQFDINFVRTVDFRIGKYTDVKQFVAPS”, the “soluble on expression in E. coli” value is recorded as “not soluble”.
For “SLGQADTERLLSDRKLVLLVDLDQTLIHTTNDNVPNNLKDVYHFQLYGPNSPWYHTRLRPGALEFLAKMHPYYELHICTFGARNYAHMIAQFLDKDGNFFSHRILSRDECFNATSKTDNLKALFPCGDSMVCIIDDREDVWNMASNLIQVKPYHFFRHTGDINAPPGMSKNELDGKGVDFKELMSQSQK” the value was “soluble”; for “MKKVLLTAINSQFIHSNLAVRYLKAYAKELDLQIKIREFSINDRLERIFEEIMYEKPDIVGFSCYIWNGEYVDKLSNLIKRVDENIQIFYGGPEVSFDCREVLLNSSADFLIEGEGEESFKEFLKWKLENGFDRKDLKIKGVYSKCQNQILYGGQREALDMNLLEFPYNEEDDLSNKIIYYEASRGCPFNCKYCLSSTIRGVRFLNPDRVKRELKFLADKKVKIVKFVDRTFNANPKFAMEIWKYLMELDTETVFHFEITADIVTEDEIELLKNAPKGRFQFEVGVQSTNNEVLKNVNRYIEFKDIKEIVMKLEEGKNINQHLDLIVGLPGEDFNSFKNSFNDVYSIGPEKLQIGFLKLLKGSSMREEAEKWGMSYSPYHPYEILRTKDISFEEISILKRVDSVVDKYYNTGKFDHIVEFLISDFETPFDFYYKLSEYFYHKGYFNRSISASEYYKVFLDFNKEILKKENDVLEEIVKFEYLKFNKKSWLPPFLTRLNVKEEEQAIKEKLKEENKFDKKLHLEKFSIDIDRYITKKEIVYKEMYHIFN”, “not soluble”.
For “QIVLTQSPAIMSASPGEKVTMTCSASSSVSYMHWYQQKSGTSPKIWIYESSKLASGVPVRFSGSGSGTSYSLTISSMEAEDVATYYCQQWSSHPHPLTFGAGTKLELKRADAAPTVSIFPPSSEQLTSGGASVVCFLNNFYPKDINVKWKIDGSERQNGVLNSWTDQDSKDSTYSMSSTLTLTKDEYERHNSYTCEATHKTSTSPIVKSFNRNEC”, the “soluble on expression in E. coli” value is “soluble”.
For “MASPAAGDVLIVGSGLVGRSWAMLFASGGFRVKLYDIEPRQITGALENIRKEMKSLQQSGSLKGSLSAEEQLSLISSCTNLAEAVEGVVHIQECVPENLDLKRKIFAQLDSIVDDRVVLSSSSSCLLPSKLFTGLAHVKQCIVAHPVNPPYYIPLVELVPHPETSPATVDRTHALMRKIGQSPVRVLKEIDGFVLNRLQYAIISEAWRLVEEGIVSPSDLDLVMSDGLGMRYAFIGPLETMHLNAEGMLSYSDRYSEGMKRVLKSFGSIPEFSGATVEKVNQAMCKKGPADPEHLAARREWRDECLKRELAKLKRQMQPQ” the value was “soluble”; for “SAGAAPTTAFGQAVIGPPGSGKTTYCLGMSEFLRALGRRVAVVNLDPANEGLPYECAVDVGELVGLGDVMDALRLGPNGGLLYCMEYLEANLDWLRAKLDPLRGHYFLFDCPGQVELCTHHGALRSIFSQMAQWDLRLTAVHLVDSHYCTDPAKFISVLCTSLATMLHVELPHINLLSKMDLIEHYGKLAFNLDYYTEVLDLSYLLDHLASDPFFRHYRQLNEKLVRLIEDYSLVSFIPLNIQDKESIQRVLQAVDKANGYCFGAQEQRSLEAMMSAAMGADFHFSSTLGIQEKYLAPSNQSVEQEAMQL”, “not soluble”.
Then “MGSDKIHHHHHHVLINQQYTRHGPDYRFGEQVTFLDVKQTFGFSHVRVGRWVTRDESRLAADLVFDSLADLAFILKLPPLKLGLRETVSLAFGHGGQKGVQAHYAPAARELALAKNAGAGALAHEFWHAFDHYIAAKSFKSSSKRFQCASDLWLSDLPIIEHPLNARLSEIFKVTFLSGNGDEPHDYVRRAIALDKKHGMQYFARPTEMMARAFEACIESYDDISNPYLVSGTRFSAMAKEGAYPDEAHRKVIFQALINYFEPLGMALSKHPLG”, with “not soluble”.
